In PMC4117426:

Biological target: T1, 6×His-SlmA (E. coli), P0C093
T1 chain: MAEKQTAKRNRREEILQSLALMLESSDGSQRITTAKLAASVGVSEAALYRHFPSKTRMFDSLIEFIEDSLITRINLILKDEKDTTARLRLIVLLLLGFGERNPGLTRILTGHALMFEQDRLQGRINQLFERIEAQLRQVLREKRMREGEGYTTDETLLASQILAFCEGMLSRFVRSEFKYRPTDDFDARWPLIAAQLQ
Test: BLI; biotinylated SBS17-30mer (50 nM) on streptavidin tips, loaded with 4 µM SlmA or SlmA mutant; FtsZ or variants (4 µM, preincubated with 1 mM GDP) or peptides (up to 320 µM) in solution; 1× Pol buffer, room temperature
Conditions: remark: other sources report otherwise

With DYLDIPAFLRKQAD [FtsZ C-terminal tail peptide (Ztail-WT)] as the binder, how does the Kd read?
Its Kd is 81 µM.
